Data: US20140348781A1

Tests used:
[1] = biological target: GMCSF receptor (GMCSFR) (UniProt Q00941); assay: cell-based or functional assay
[2] = biological target: IL9 receptor (IL9R) (UniProt Q01114); assay: cell-based or functional assay
Chain of UniProt Q01114 (Q01114 38-468 limits assumed, chain 1 of 2): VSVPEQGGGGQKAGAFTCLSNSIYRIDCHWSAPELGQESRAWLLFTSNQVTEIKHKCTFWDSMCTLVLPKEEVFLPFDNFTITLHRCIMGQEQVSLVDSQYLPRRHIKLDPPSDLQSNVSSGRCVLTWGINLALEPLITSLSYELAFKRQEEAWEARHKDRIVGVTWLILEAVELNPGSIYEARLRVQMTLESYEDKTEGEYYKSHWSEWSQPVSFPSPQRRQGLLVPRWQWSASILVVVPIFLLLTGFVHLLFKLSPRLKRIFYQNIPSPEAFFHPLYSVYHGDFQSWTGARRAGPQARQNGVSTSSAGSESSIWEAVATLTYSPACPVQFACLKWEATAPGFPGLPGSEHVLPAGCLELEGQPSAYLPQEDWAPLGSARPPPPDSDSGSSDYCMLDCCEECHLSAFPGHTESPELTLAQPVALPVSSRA
Chain of UniProt Q01114 (P34902 23-369 limits assumed, chain 2 of 2, further chain): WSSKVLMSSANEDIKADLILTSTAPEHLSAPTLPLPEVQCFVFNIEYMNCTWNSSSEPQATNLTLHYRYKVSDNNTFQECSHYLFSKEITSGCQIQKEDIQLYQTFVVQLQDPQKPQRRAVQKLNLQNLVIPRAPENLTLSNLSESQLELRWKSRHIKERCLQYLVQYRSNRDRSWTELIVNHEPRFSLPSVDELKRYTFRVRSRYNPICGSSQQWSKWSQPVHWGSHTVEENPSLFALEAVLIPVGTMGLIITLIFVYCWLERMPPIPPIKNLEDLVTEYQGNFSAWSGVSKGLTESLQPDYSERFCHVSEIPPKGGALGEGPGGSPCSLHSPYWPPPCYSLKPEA

Chain of UniProt Q00941 (Q00941 30-388, chain 1 of 2): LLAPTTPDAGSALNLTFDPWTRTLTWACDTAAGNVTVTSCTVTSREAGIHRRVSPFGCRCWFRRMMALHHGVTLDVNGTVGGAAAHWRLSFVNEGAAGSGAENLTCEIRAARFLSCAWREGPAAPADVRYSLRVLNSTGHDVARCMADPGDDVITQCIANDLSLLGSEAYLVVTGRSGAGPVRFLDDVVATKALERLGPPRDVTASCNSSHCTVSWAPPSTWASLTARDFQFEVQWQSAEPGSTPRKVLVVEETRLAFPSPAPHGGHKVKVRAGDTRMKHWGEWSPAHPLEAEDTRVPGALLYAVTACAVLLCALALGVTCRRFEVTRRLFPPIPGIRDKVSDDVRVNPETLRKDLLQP
Chain of UniProt Q00941 (P26955 23-896, chain 2 of 2, further chain): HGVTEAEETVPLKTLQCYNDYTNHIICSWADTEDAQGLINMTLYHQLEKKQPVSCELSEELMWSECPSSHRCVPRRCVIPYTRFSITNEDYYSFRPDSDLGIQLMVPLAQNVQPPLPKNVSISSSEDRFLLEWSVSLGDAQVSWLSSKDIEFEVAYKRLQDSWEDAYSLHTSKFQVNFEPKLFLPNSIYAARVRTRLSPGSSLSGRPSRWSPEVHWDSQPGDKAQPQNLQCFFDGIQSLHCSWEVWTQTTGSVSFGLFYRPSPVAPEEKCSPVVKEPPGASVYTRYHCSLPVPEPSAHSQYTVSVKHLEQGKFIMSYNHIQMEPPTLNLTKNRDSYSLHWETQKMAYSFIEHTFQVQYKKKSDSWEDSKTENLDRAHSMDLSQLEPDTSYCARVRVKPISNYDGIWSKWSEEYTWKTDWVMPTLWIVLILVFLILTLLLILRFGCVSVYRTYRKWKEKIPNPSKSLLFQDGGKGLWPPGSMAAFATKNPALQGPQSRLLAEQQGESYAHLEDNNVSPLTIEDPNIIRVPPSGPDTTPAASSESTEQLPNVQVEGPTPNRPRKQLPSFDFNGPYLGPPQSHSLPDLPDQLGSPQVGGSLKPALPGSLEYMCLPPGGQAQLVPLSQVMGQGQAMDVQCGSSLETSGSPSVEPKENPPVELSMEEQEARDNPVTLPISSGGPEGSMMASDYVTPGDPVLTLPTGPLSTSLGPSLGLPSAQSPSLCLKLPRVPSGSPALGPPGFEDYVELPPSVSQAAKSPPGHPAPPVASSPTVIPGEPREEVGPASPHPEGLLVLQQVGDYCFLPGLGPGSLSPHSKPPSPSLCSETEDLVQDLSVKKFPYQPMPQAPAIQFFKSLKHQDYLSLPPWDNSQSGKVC

For “mouse GIFT9 (fusion of mouse GMCSF and mouse IL9) (ligand)”, the proliferative rate of bone marrow derived mast cells (MTT assay, 5 days) [1] was 100% and the proliferative rate of bone marrow derived mast cells (MTT assay, 5 days) [2] was 100%.
